# In article PMC11973211, “Mechanistic insights into the structure-based design of a CspZ-targeting Lyme disease vaccine” (Nature Communications, 2025):
# Target: T1, human complement factor H (human, UniProt P08603 19-1231)
# T1 construct: complement factor H, human; used at 500 nM in the ELISA; also called FH; human FH
# Assay: ELISA; 1 µg histidine-tagged CspZ coated on wells, blocked with 5% BSA in PBS; PBS (control), irrelevant human IgG, #1139c or #1193c (0.4-50 nM) added, then 500 nM human FH; bound FH detected with sheep anti-human FH and donkey anti-sheep HRP
# Conditions: both partners purified
# T1 sequence (P08603 19-1231): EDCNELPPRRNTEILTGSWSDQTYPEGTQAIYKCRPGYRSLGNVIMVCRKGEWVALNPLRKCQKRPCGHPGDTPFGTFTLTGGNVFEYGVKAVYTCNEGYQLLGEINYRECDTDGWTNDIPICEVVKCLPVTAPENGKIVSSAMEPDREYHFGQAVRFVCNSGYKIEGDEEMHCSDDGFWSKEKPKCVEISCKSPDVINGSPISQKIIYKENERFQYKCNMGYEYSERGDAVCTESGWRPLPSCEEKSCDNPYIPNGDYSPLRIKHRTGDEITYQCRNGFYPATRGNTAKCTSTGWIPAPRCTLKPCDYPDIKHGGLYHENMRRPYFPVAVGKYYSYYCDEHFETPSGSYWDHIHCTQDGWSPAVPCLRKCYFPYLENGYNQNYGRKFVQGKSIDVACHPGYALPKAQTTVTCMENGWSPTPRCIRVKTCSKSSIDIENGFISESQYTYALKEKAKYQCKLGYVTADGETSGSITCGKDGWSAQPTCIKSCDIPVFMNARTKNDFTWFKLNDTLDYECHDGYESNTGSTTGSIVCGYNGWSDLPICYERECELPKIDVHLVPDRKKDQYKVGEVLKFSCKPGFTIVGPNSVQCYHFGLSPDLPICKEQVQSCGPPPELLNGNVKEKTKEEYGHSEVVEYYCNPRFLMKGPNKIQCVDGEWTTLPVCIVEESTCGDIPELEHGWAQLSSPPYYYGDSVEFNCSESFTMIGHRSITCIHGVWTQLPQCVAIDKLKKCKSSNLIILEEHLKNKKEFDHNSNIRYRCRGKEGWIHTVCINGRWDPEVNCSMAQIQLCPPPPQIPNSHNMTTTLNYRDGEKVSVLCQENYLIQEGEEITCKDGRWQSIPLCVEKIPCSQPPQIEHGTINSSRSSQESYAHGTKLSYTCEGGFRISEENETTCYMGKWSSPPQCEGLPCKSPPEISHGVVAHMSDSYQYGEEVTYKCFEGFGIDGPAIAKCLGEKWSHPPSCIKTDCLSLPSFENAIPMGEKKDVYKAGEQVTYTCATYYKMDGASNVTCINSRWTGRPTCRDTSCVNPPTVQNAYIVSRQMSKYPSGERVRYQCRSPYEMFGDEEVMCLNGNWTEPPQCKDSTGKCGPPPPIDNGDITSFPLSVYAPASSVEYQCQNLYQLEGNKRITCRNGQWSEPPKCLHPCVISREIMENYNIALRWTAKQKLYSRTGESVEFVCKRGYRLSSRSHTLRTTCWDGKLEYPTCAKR
binder,measurement,value
"histidine-tagged CspZ (B. burgdorferi B31 CspZ) (natural protein, CspZ (BbCRASP-2), outer surface protein of Borrelia burgdorferi strain B31; codon-optimised synthetic DNA in pET28a (BamHI/SalI); this is a surmise; also called BbCRASP-2) RLNQRNINELKIFVEKAKYYSIKLDAIYNECTGAYNDIMTYSEGTFSDQSKVNQAISIFKKDNKIVNKFKELEKIIEEYKPMFLSKLIDDFAIELDQAVDNDVSNARHVADSYKKLRKSVVLAYIESFDVISSKFVDSKFVEASKKFVNKAKEFVEENDLIALECIVKTIGDMVNDREINSRSRYNNFYKKEADFLGAAVELEGAYKAIKQTLL",binding result,binds
